This note sets out measurements from patent US20200325209A1.

In assay [1] the target is human neonatal Fc receptor FcRn/β2m, soluble recombinant (human) (UniProt P55899). The experiment in a line: flow cytometry, labelled FcRn on CHO-displayed HSA, pH 5.5. On the technique in general: A flow cytometer gives signals particle by particle.
Assay [2] shares this target. The experiment in a line: flow cytometry, labelled FcRn on CHO-displayed HSA, pH 7.4.

Sequence of human neonatal Fc receptor FcRn/β2m, soluble recombinant (human) (P55899 24-297 limits assumed, chain 1 of 2): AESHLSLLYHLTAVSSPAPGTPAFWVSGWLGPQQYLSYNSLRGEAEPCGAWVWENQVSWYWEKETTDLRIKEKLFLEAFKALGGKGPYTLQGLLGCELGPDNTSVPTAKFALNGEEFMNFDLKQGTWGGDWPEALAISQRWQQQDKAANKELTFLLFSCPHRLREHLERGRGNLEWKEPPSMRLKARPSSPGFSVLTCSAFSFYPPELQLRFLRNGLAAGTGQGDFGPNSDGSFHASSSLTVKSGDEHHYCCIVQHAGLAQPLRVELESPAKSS
Sequence of human neonatal Fc receptor FcRn/β2m, soluble recombinant (human) (P61769 21-119 limits assumed, chain 2 of 2, further chain): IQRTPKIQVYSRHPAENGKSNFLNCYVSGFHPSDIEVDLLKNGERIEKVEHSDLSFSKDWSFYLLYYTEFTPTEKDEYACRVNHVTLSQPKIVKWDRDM

“HSA [Q522T], membrane-tethered on CHO cells (from UniProt P02768 25-609)”: the results for the mean geoMFI in assay [1] and in assay [2] were 290 and 28.3, respectively. On the same counts, the results for “HSA [Q522S], membrane-tethered on CHO cells (from UniProt P02768 25-609)” are 258 and 32.7.

Take “HSA [G572D], membrane-tethered on CHO cells (from UniProt P02768 25-609)”: the mean geoMFI in assay [1] is 305; in assay [2] it was 32.7.

Turning to “HSA [Q522R], membrane-tethered on CHO cells (from UniProt P02768 25-609)”, the mean geoMFI in assay [1] is 386; in assay [2] it was 17.8. On the same counts, the results for “HSA [G572V], membrane-tethered on CHO cells (from UniProt P02768 25-609)” are 58.2 and 20.7. Consider “HSA [G572Q], membrane-tethered on CHO cells (from UniProt P02768 25-609)”, for which the mean geoMFI in assay [1] amounted to 201. As for “HSA [Q522P], membrane-tethered on CHO cells (from UniProt P02768 25-609)”, the mean geoMFI in assay [2] amounted to 29.4. For the substance “HSA [Q522D], membrane-tethered on CHO cells (from UniProt P02768 25-609)”, the results for the mean geoMFI in assay [1] and in assay [2] were 317 and 22.4, respectively. On to “HSA [Q522N], membrane-tethered on CHO cells (from UniProt P02768 25-609)”, for which the mean geoMFI in assay [2] stood at 31.4. For “HSA [Q522E], membrane-tethered on CHO cells (from UniProt P02768 25-609)”, the mean geoMFI amounted to 128 in assay [1] and 29.2 in assay [2]. For the substance “HSA [G572P], membrane-tethered on CHO cells (from UniProt P02768 25-609)”, the mean geoMFI in assay [1] worked out at 216; in assay [2], 30.6. As to “HSA [G572N], membrane-tethered on CHO cells (from UniProt P02768 25-609)”, the mean geoMFI in assay [1] stood at 85.8; in assay [2], 36.4. Consider “HSA [Q522H], membrane-tethered on CHO cells (from UniProt P02768 25-609)”, for which the mean geoMFI in assay [2] worked out at 27.2. The same measure, in the same setting: for “HSA [Q522A], membrane-tethered on CHO cells (from UniProt P02768 25-609)” the value was 17.8.
